Results: the Human Domainome abundance scans (Beltran et al. 2025)
± gives the uncertainty stated by the source.

B1: Homeobox protein cut-like 2, residues 895 to 963; numbered along this chain, O14529 (parent)
chain: EVDTLELTRQVKEKLAKNGICQRIFGEKVLGLSQGSVSDMLSRPKPWSKLTQKGREPFIRMQLWLSDQL
B2: Gamma-crystallin S, residues 96 to 176; numbered along this chain, P22914 (parent)
chain: IQIFEKGDFSGQMYETTEDCPSIMEQFHMREIHSCKVLEGVWIFYELPNYRGRQYLLDKKEYRKPIDWGAASPAVQSFRRI

Variants of: B1
Experiment: abundance fitness (aPCA) (normalised: wild type 0, dead -1); higher = more abundant; growth selection in yeast, the domain comes from the species named
Details: Homo sapiens

Abundance fitness: each site, then its substitutions
L5: I 0.024 ± 0.045 | F 0.025 ± 0.042 | R -0.039 ± 0.031 | S -0.231 ± 0.03 | K 0.102 ± 0.031 | N 0.046 ± 0.058 | C -0.03 ± 0.052 | W -0.021 ± 0.033 | G -0.061 ± 0.03 | M 0.122 ± 0.029 | D -0.146 ± 0.048 | Y -0.033 ± 0.051 | V 0.015 ± 0.026 | E 0.083 ± 0.031 | T 0.015 ± 0.032 | P -0.076 ± 0.036 | A 0.028 ± 0.028
K14: H -0.009 ± 0.062 | G -0.589 ± 0.16 | N -0.249 ± 0.081 | A -0.064 ± 0.075 | E -0.073 ± 0.071 | M 0.066 ± 0.033 | P -0.208 ± 0.091 | I -0.022 ± 0.051 | D -0.55 ± 0.12 | F 0.102 ± 0.056 | L 0.009 ± 0.027
T8: S -0.115 ± 0.031 | V 0.041 ± 0.032 | L -0.157 ± 0.026 | I -0.107 ± 0.044 | R -0.136 ± 0.029 | E -0.242 ± 0.045 | P -0.185 ± 0.038 | W -0.206 ± 0.032 | K -0.063 ± 0.041 | D -0.214 ± 0.073 | Y -0.309 ± 0.056 | A -0.064 ± 0.045 | H -0.19 ± 0.046 | G -0.204 ± 0.04 | C -0.022 ± 0.035 | F -0.143 ± 0.04 | N -0.158 ± 0.058 | Q -0.333 ± 0.039
E6: C -0.231 ± 0.042 | T -0.129 ± 0.08 | K -0.035 ± 0.045 | F -0.192 ± 0.053 | M -0.192 ± 0.035 | N -0.055 ± 0.1 | Q -0.258 ± 0.12 | V -0.191 ± 0.028 | R -0.162 ± 0.034 | I -0.196 ± 0.077 | W -0.173 ± 0.029 | Y -0.158 ± 0.059 | S -0.095 ± 0.047 | D 0.096 ± 0.055 | A -0.123 ± 0.052 | G -0.111 ± 0.027 | H -0.142 ± 0.34
Q10: V -0.164 ± 0.043 | K 0.07 ± 0.036 | A -0.23 ± 0.092 | H -0.228 ± 0.057 | S -0.155 ± 0.03 | D 0.005 ± 0.11 | N -0.128 ± 0.046 | Y -0.313 ± 0.05 | F -0.244 ± 0.04 | E -0.214 ± 0.095 | C -0.343 ± 0.082 | P -0.158 ± 0.039 | R -0.038 ± 0.055 | M 0.082 ± 0.033 | L -0.018 ± 0.026
E13: K -0.101 ± 0.043 | H -0.155 ± 0.08 | W -0.357 ± 0.047 | Y -0.08 ± 0.062 | A -0.072 ± 0.044 | F -0.182 ± 0.034 | D 0.117 ± 0.092 | R -0.101 ± 0.041 | T -0.144 ± 0.05 | G -0.2 ± 0.046 | V -0.235 ± 0.041 | I -0.139 ± 0.056 | N -0.116 ± 0.09 | Q -0.248 ± 0.053 | M -0.008 ± 0.031 | P -0.135 ± 0.049 | L -0.138 ± 0.024 | C -0.205 ± 0.091 | S -0.129 ± 0.037
E1: C 0.037 ± 0.17 | N -0.067 ± 0.13 | H -0.149 ± 0.27 | V -0.213 ± 0.038 | A -0.122 ± 0.054 | F -0.079 ± 0.17 | W -0.239 ± 0.088 | M 0.034 ± 0.046 | L -0.3 ± 0.045 | Q -0.278 ± 0.12 | T -0.247 ± 0.075 | K -0.026 ± 0.067 | S -0.063 ± 0.12 | D -0.457 ± 0.093
K12: R -0.187 ± 0.031 | V -0.366 ± 0.036 | D -0.025 ± 0.11 | M -0.237 ± 0.037 | T -0.271 ± 0.045 | G -0.516 ± 0.037 | H -0.354 ± 0.11 | S -0.387 ± 0.032 | W -0.547 ± 0.031 | F -0.748 ± 0.045 | Y -0.528 ± 0.058 | N -0.27 ± 0.086 | A -0.372 ± 0.058 | E -0.348 ± 0.074 | Q -0.358 ± 0.061 | P -0.244 ± 0.06
V2: W -0.137 ± 0.045 | N -0.136 ± 0.077 | L 0.03 ± 0.027 | R -0.041 ± 0.052 | K 0.017 ± 0.053 | Y -0.152 ± 0.069 | E -0.019 ± 0.047 | S -0.019 ± 0.033 | M 0.077 ± 0.038 | P -0.244 ± 0.056 | F -0.024 ± 0.048 | D -0.301 ± 0.072 | H -0.201 ± 0.068 | G -0.001 ± 0.05
D3: Y -0.358 ± 0.047 | S -0.084 ± 0.062 | F -0.139 ± 0.047 | C -0.279 ± 0.047 | W -0.221 ± 0.035 | R -0.316 ± 0.043 | G -0.253 ± 0.033 | M -0.163 ± 0.027 | N -0.001 ± 0.056 | K -0.203 ± 0.032 | I -0.541 ± 0.06 | V -0.42 ± 0.029 | E -0.277 ± 0.041
V11: Q -0.218 ± 0.04 | R -0.125 ± 0.029 | L -0.27 ± 0.035 | M -0.162 ± 0.041 | E -0.192 ± 0.039 | D -0.065 ± 0.073 | P -0.141 ± 0.051 | A -0.224 ± 0.041 | Y -0.326 ± 0.15 | C -0.465 ± 0.083 | T -0.171 ± 0.049 | I -0.18 ± 0.092 | W -0.313 ± 0.034 | F -0.239 ± 0.062 | S -0.166 ± 0.037 | K -0.081 ± 0.035 | N -0.153 ± 0.083 | H -0.23 ± 0.07 | G -0.146 ± 0.029
T4: K -0.14 ± 0.035 | A -0.334 ± 0.034 | R -0.13 ± 0.035 | P -0.179 ± 0.039 | E -0.208 ± 0.041 | Y -0.468 ± 0.068 | G -0.282 ± 0.035 | L -0.215 ± 0.027 | V -0.221 ± 0.031 | Q -0.254 ± 0.033 | D -0.092 ± 0.066 | M 0.037 ± 0.03 | I -0.126 ± 0.059 | S -0.244 ± 0.034 | W -0.015 ± 0.039 | H -0.186 ± 0.051 | C -0.3 ± 0.073 | F -0.006 ± 0.063
L7: D -0.074 ± 0.076 | T -0.077 ± 0.041 | E 0.016 ± 0.051 | W -0.215 ± 0.031 | R -0.045 ± 0.03 | M 0.055 ± 0.037 | N 0.034 ± 0.089 | V -0.023 ± 0.032 | I -0.058 ± 0.067 | K 0.032 ± 0.04 | H -0.246 ± 0.073 | F -0.141 ± 0.048 | Q -0.124 ± 0.042 | C -0.164 ± 0.051 | S -0.041 ± 0.032 | A -0.125 ± 0.04 | P -0.103 ± 0.036
R9: W -0.385 ± 0.03 | E -0.1 ± 0.034 | K -0.086 ± 0.044 | H -0.358 ± 0.1 | C -0.21 ± 0.042 | P -0.137 ± 0.047 | M 0.006 ± 0.036 | D -0.21 ± 0.059 | N -0.068 ± 0.065 | V -0.15 ± 0.027 | S -0.16 ± 0.033 | F -0.181 ± 0.046 | L -0.162 ± 0.028 | T -0.135 ± 0.047 | Q -0.132 ± 0.045 | A -0.044 ± 0.033 | G -0.129 ± 0.026 | Y -0.261 ± 0.059

Variants of: B2
Experiment: as above
Details: Homo sapiens

Abundance fitness: each site, then its substitutions
I81: R -0.074 ± 0.14 | C 0.106 ± 0.16 | S -0.043 ± 0.38 | D 0.114 ± 0.27 | N 0.165 ± 0.49 | E 0.026 ± 0.14 | M -0.31 ± 0.23 | L -0.065 ± 0.29 | K -0.186 ± 0.24 | Q 0.045 ± 0.21
V75: L -0.046 ± 0.12 | G 0.052 ± 0.16 | R -0.665 ± 0.23 | A -0.021 ± 0.16 | E -0.821 ± 0.22 | T -0.211 ± 0.15 | F 0.146 ± 0.21 | D -0.724 ± 0.28 | W -0.105 ± 0.16
R80: L 0.02 ± 0.17 | Y -0.919 ± 0.49 | V 0.062 ± 0.14 | Q -0.491 ± 0.24 | G 0.028 ± 0.13 | S -0.023 ± 0.12 | H -0.573 ± 0.33 | A -0.381 ± 0.27 | E -0.253 ± 0.28 | C 0.059 ± 0.36
A74: G 0.046 ± 0.12 | M -0.011 ± 0.19 | V 0.086 ± 0.2 | C 0.203 ± 0.16 | S -0.111 ± 0.17 | Q 0.034 ± 0.17 | L 0.113 ± 0.12 | E -0.139 ± 0.29 | R 0.118 ± 0.24 | T -0.159 ± 0.16
F78: I -0.228 ± 0.33 | P -0.869 ± 0.43 | L 0.059 ± 0.3 | H -0.229 ± 0.37 | R -1.11 ± 0.38 | Y -0.023 ± 0.24 | K -0.771 ± 0.38 | V -0.039 ± 0.16 | A -0.136 ± 0.17 | S -0.37 ± 0.21
A71: D -0.308 ± 0.49 | K 0.144 ± 0.32 | E 0.028 ± 0.21 | P 0.128 ± 0.43 | S -0.125 ± 0.12 | M 0.022 ± 0.13 | Q -0.187 ± 0.3 | L -0.223 ± 0.17 | H 0.052 ± 0.33 | G 0.01 ± 0.14 | R 0.007 ± 0.087 | C -0.048 ± 0.16 | W 0.018 ± 0.092
A70: Y 0.258 ± 0.19
P73: W 0.089 ± 0.13 | F 0.27 ± 0.31 | T -0.082 ± 0.39 | H 0.006 ± 0.31 | D -0.23 ± 0.24 | G -0.309 ± 0.16 | L 0.338 ± 0.39 | E -0.215 ± 0.24 | R -0.006 ± 0.11
S72: Y 0.173 ± 0.21 | M -0.149 ± 0.19 | Q 0.086 ± 0.25 | D -0.109 ± 0.32 | C -0.107 ± 0.3 | A -0.016 ± 0.11 | L 0.002 ± 0.14 | F -0.066 ± 0.15 | P 0.069 ± 0.16 | T -0.1 ± 0.33 | N -0.204 ± 0.25 | W 0.007 ± 0.15 | E 0.125 ± 0.35 | R -0.154 ± 0.14
R79: S -0.036 ± 0.06 | M -0.346 ± 0.2 | T 0.021 ± 0.21 | V -0.596 ± 0.26 | Q -0.058 ± 0.33 | A 0.147 ± 0.37 | E -0.191 ± 0.37 | G -0.413 ± 0.14 | K -0.358 ± 0.33 | I -0.294 ± 0.24 | W -0.419 ± 0.33 | L -0.406 ± 0.16
S77: G -0.35 ± 0.13 | T -0.714 ± 0.37 | C -0.327 ± 0.44 | P -0.457 ± 0.23 | L -0.932 ± 0.48 | A -0.003 ± 0.18
Q76: L -0.129 ± 0.27 | G -0.066 ± 0.34 | E -0.145 ± 0.29 | W -0.441 ± 0.39
